Reference: patent publication US20210139581A1 (Alector, published 2021)
Changes are numbered by the printed parent chain. One block for each binder: values may come before it.

Key:
[1] = biological target: T1, human CD33 (human, UniProt P20138 18-259, limits assumed); assay: BLI (ForteBio), Fab 100 nM on immobilized CD33
T1 construct: Human CD33 immobilized on the BLI sensor tip or the BIAcore C1 chip; also called Siglec-3

[2] = biological target: T1, human CD33; assay: BLI (ForteBio), Fab 100 nM on immobilized CD33; kon/koff columns printed 3 rows too low, assigned by koff/kon = printed KD of AB-63.5
Method: (§1) The affinities (KD) of the humanized antibodies for human CD33 were measured for each antibody by BioLayer Interferometry in a ForteBio assay according to standard techniques (Estep et al. (2013) MAbs 5(2): 270-8). […] The assay was carried out at room temperature.
(§2) The affinities of AB-H14 and its affinity-matured variants (Table 15) and AB-H63 and its affinity-matured variants (Table 16), for human CD33 were measured by Fortebio assay according to the method described in Example 1 above.

[3] = biological target: human CD33 on primary human monocyte-derived dendritic cells (human, UniProt P20138 18-364); assay: cell-based or functional assay
Chain of human CD33 on primary human monocyte-derived dendritic cells (P20138 18-364): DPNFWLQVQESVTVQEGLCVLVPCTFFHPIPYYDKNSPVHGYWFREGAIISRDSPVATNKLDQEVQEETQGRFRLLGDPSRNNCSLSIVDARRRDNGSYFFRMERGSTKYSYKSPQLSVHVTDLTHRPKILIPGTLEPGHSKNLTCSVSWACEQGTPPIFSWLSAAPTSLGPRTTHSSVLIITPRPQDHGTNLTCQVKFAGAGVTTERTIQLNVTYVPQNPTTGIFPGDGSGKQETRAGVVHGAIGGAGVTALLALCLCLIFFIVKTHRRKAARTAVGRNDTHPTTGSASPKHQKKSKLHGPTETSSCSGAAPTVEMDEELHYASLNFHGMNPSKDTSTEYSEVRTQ

[4] = biological target: T1, human CD33; assay: BLI (ForteBio), Fab 100 nM on immobilized CD33; kon/koff columns printed 3 rows too low, assigned by koff/kon = printed KD of AB-63.6
Method: as §1, §2

[5] = biological target: T1, human CD33; assay: BLI (ForteBio), Fab 100 nM on immobilized CD33; kon/koff columns printed 3 rows too low, assigned by koff/kon = printed KD of AB-63.7
Method: as §1, §2

[6] = biological target: T1, human CD33; assay: BLI (ForteBio), Fab 100 nM on immobilized CD33; kon/koff columns printed 3 rows too low, assigned by koff/kon = printed KD of AB-63.13
Method: as §1, §2

[7] = biological target: T1, human CD33; assay: BLI (ForteBio), Fab 100 nM on immobilized CD33; kon/koff columns printed 3 rows too low, assigned by koff/kon = printed KD of AB-63.11
Method: as §1, §2

[8] = biological target: T1, human CD33; assay: BLI (ForteBio), Fab 100 nM on immobilized CD33; kon/koff columns printed 3 rows too low, assigned by koff/kon = printed KD of AB-63.9
Method: as §1, §2

[9] = biological target: T1, human CD33; assay: BLI (ForteBio), Fab 100 nM on immobilized CD33; kon/koff columns printed 3 rows too low, assigned by koff/kon = printed KD of AB-63.12
Method: as §1, §2

[10] = biological target: T1, human CD33; assay: BLI (ForteBio), Fab 100 nM on immobilized CD33; kon/koff columns printed 3 rows too low, assigned by koff/kon = printed KD of AB-63.14
Method: as §1, §2

[11] = biological target: T1, human CD33; assay: BLI (ForteBio), Fab 100 nM on immobilized CD33; kon/koff columns printed 3 rows too low, assigned by koff/kon = printed KD of AB-63.15
Method: as §1, §2

[12] = biological target: T1, human CD33; assay: BLI (ForteBio), Fab 100 nM on immobilized CD33; kon/koff columns printed 3 rows too low, assigned by koff/kon = printed KD of AB-63.8
Method: as §1, §2

[13] = biological target: T1, human CD33; assay: BLI (ForteBio), Fab 100 nM on immobilized CD33; kon/koff columns printed 3 rows too low, assigned by koff/kon = printed KD of AB-63.10
Method: as §1, §2

T1 sequence (P20138 18-259 limits assumed): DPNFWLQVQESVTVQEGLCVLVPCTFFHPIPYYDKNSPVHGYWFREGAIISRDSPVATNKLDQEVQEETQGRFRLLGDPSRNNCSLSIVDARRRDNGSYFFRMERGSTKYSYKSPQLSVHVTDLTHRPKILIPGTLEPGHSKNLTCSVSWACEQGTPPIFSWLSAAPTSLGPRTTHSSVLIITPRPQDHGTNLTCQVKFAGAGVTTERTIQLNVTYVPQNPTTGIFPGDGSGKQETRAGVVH

B1: AB-63.5 (antibody, V domains shown)
VH: QVQLVQSGAEVKKPGASVKVSCKASGYTFTDYNNHWVRQAPGQGLEWIGFIYPSNGITGYAQKFQGRVTMTVDTSTSTVYMELSSLRSEDTAVYYCARSDVDYFDYWGQGTLVTVSS
VL: DIVLTQSPDSLAVSLGERATINCRASQSVSTSTYSYMHWYQQKPGQPPKLLIKYASNLESGVPDRFSGSGSGTDFTLTISSLQAEDVAVYYCQHSWEIPLTFGQGTKLEIK
- Fold affinity improvement over parental Ab (AB-H63) [1]: 4.4 fold
- Kd [1]: 0.619 nM
- koff [2]: 0.000524 s⁻¹
- kon [2]: 847000 M⁻¹ s⁻¹
- Maximal Downregulation (% CD33 remaining) [3]: 16.5%
- Receptor downregulation (EC50) [3]: 40.1 pM

B2: AB-63.6 (antibody, V domains shown)
VH: B1 VH with N34L, D100T
VL: B1 VL with S28D
- Fold affinity improvement over parental Ab (AB-H63) [1]: 8.96 fold
- Kd [1]: 0.304 nM
- koff [4]: 0.0002 s⁻¹
- kon [4]: 658000 M⁻¹ s⁻¹
- Maximal Downregulation (% CD33 remaining) [3]: 17.1%
- Receptor downregulation (EC50) [3]: 46.3 pM

B3: AB-63.7 (antibody, V domains shown)
VH: B1 VH with N34L, D100T
VL: B1 VL with S28D, S56F, T101E
- Fold affinity improvement over parental Ab (AB-H63) [1]: 2.97 fold
- Kd [1]: 0.917 nM
- koff [5]: 0.000546 s⁻¹
- kon [5]: 596000 M⁻¹ s⁻¹
- Maximal Downregulation (% CD33 remaining) [3]: 18.4%
- Receptor downregulation (EC50) [3]: 41.6 pM

B5: AB-63.11 (antibody, V domains shown)
VH: B1 VH with N34F, S54A, F64D
VL: B1 VL with S28D
- Fold affinity improvement over parental Ab (AB-H63) [1]: 7.09 fold
- Kd [1]: 0.384 nM
- koff [7]: 0.000322 s⁻¹
- kon [7]: 839000 M⁻¹ s⁻¹
- Maximal Downregulation (% CD33 remaining) [3]: 23%
- Receptor downregulation (EC50) [3]: 44 pM

B6: AB-63.9 (antibody, V domains shown)
VH: B1 VH with T28A, N34L
VL: B1 VL with S28D, N57Y, Q93E
- Fold affinity improvement over parental Ab (AB-H63) [1]: 10.1 fold
- Kd [1]: 0.271 nM
- koff [8]: 0.0002 s⁻¹
- kon [8]: 738000 M⁻¹ s⁻¹
- Maximal Downregulation (% CD33 remaining) [3]: 20.1%
- Receptor downregulation (EC50) [3]: 40.7 pM

B7: AB-63.12 (antibody, V domains shown)
VH: B1 VH with N34F, Q65T, D100T, Y106D
VL: B1 VL with S28D, L58V, E97A
- koff [9]: 0.0002 s⁻¹
- kon [9]: 723000 M⁻¹ s⁻¹
- Fold affinity improvement over parental Ab (AB-H63) [1]: 9.84 fold
- Kd [1]: 0.277 nM
- Maximal Downregulation (% CD33 remaining) [3]: 27.5%
- Receptor downregulation (EC50) [3]: 35 pM

B11: AB-63.10 (antibody, V domains shown)
VH: B1 VH with F29E, N34L
VL: B1 VL with S28D, I98L
- Fold affinity improvement over parental Ab (AB-H63) [1]: 5.84 fold
- Kd [1]: 0.466 nM
- koff [13]: 0.000336 s⁻¹
- kon [13]: 721000 M⁻¹ s⁻¹
- Maximal Downregulation (% CD33 remaining) [3]: 21.2%
- Receptor downregulation (EC50) [3]: 41.8 pM

The next binders have a lower Kd [1] than those just listed; values first:

- Fold affinity improvement over parental Ab (AB-H63) [1]: 12.1 fold
- Kd [1]: 0.225 nM
- koff [6]: 0.00023 s⁻¹
- kon [6]: 1.02e+06 M⁻¹ s⁻¹
- Maximal Downregulation (% CD33 remaining) [3]: 25.5%
- Receptor downregulation (EC50) [3]: 44.8 pM
B4: AB-63.13 (antibody, V domains shown)
VH: B1 VH with N34L, T58R
VL: B1 VL with W96E

- Fold affinity improvement over parental Ab (AB-H63) [1]: 11.2 fold
- Kd [1]: 0.244 nM
- koff [10]: 0.0002 s⁻¹
- kon [10]: 819000 M⁻¹ s⁻¹
- Maximal Downregulation (% CD33 remaining) [3]: 25.3%
- Receptor downregulation (EC50) [3]: 51.9 pM
B8: AB-63.14 (antibody, V domains shown)
VH: B1 VH with A16S, N34L
VL: B1 VL with N22D, R24K, S28D

- Fold affinity improvement over parental Ab (AB-H63) [1]: 12.1 fold
- Kd [1]: 0.225 nM
- koff [11]: 0.000204 s⁻¹
- kon [11]: 903000 M⁻¹ s⁻¹
- Maximal Downregulation (% CD33 remaining) [3]: 27.5%
- Receptor downregulation (EC50) [3]: 47.6 pM
B9: AB-63.15 (antibody, V domains shown)
VH: B1 VH with N34Y, Y106L
VL: B1 VL with S28D, L58V, K111E

- koff [12]: 0.0002 s⁻¹
- kon [12]: 913000 M⁻¹ s⁻¹
- Fold affinity improvement over parental Ab (AB-H63) [1]: 12.4 fold
- Kd [1]: 0.219 nM
- Maximal Downregulation (% CD33 remaining) [3]: 22%
- Receptor downregulation (EC50) [3]: 16.7 pM
B10: AB-63.8 (antibody, V domains shown)
VH: B1 VH with A16S, Y27V, N34Y, G66D, D100T
VL: B1 VL with S28D
